Consider 1 protein from publication PMC5676521.

For orientation: Km means the substrate concentration at which the rate is half of its maximum.

Substrate in the data set: C[S+](CC[C@H](N)C(=O)[O-])C[C@H]1O[C@@H](n2cnc3c(N)ncnc32)[C@H](O)[C@@H]1O
The experiment in a line: purified protein. The conditions noted are these: varied: cofactor.

B1: PRMT7 (TbPRMT7) (Trypanosoma brucei brucei TREU927) (protein)
chain: MPPKQHRHQKKDKNDNALQNTIGFVPPGATLASVSGYRPPDAFVNRIDRNIPVPARLRHTPVSLIEAVNDFHYAMMNDEERNNFYYEVLKKHVTPETGVLEIGAGSGLLSLMAAKLGAKWVVAVEGSEELAKLARENIRANNMEHQVKVLHMMSTELKSKHLPEPPDVLLSEIFGTMMLGESALDYVVDVRNRLLKPTTKIIPQFGTQYAVPIECDALHRISSVSGWRDLDLKHMMTLQDTVSIVFAKHYGIRMNSVNFRRLSDPIELFRVDFSSSNRNDIPRRKHFDVVAKESGTAHAMLFYWKVTDDEFVMSTDPEDTVNNFPRDMQWGQALQLLDASNGPLPTPVVFTEGKNYNFECNFSGDRVILHMQLCPESGNGEMTECEGKTT
Consider B1, for which the Km turned out to be 1.1 ± 0.2 µM and the kcat is given as 22.3 ± 0.6 h^–1.
